Data on three molecules can be found in US20210324059A1 (AMLO BIOSCIENCES, published 2021).

No end group written: not given here.

Test [1] has as its target T1, N1-CD33-His6 (the ectodomain of human CD33 fused to the N1 domain of the g3p filamentous phage M13) (filamentous phage M13; human, UniProt P20138 18-259).
T1 construct: extracellular domain; Control protein of the QC ELISA, used for calculation of background; not shown: N1 domain of g3p of filamentous phage M13
As to the kind of experiment: quality control ELISA on immobilized control protein. For orientation: An ELISA detects its analyte on a solid surface through an enzyme-linked reagent.

Test [2] deals with T1, N1-CD33-His6 (the ectodomain of human …). As to the kind of experiment: QC ELISA on immobilized control protein.
A further test concerns the target T2, human Ambra-1 (human, UniProt Q9C0C7 1-1298).
T2 construct: Endogenous protein in formalin fixed paraffin embedded human skin and melanoma sections (immunohistochemistry)
T2 sequence: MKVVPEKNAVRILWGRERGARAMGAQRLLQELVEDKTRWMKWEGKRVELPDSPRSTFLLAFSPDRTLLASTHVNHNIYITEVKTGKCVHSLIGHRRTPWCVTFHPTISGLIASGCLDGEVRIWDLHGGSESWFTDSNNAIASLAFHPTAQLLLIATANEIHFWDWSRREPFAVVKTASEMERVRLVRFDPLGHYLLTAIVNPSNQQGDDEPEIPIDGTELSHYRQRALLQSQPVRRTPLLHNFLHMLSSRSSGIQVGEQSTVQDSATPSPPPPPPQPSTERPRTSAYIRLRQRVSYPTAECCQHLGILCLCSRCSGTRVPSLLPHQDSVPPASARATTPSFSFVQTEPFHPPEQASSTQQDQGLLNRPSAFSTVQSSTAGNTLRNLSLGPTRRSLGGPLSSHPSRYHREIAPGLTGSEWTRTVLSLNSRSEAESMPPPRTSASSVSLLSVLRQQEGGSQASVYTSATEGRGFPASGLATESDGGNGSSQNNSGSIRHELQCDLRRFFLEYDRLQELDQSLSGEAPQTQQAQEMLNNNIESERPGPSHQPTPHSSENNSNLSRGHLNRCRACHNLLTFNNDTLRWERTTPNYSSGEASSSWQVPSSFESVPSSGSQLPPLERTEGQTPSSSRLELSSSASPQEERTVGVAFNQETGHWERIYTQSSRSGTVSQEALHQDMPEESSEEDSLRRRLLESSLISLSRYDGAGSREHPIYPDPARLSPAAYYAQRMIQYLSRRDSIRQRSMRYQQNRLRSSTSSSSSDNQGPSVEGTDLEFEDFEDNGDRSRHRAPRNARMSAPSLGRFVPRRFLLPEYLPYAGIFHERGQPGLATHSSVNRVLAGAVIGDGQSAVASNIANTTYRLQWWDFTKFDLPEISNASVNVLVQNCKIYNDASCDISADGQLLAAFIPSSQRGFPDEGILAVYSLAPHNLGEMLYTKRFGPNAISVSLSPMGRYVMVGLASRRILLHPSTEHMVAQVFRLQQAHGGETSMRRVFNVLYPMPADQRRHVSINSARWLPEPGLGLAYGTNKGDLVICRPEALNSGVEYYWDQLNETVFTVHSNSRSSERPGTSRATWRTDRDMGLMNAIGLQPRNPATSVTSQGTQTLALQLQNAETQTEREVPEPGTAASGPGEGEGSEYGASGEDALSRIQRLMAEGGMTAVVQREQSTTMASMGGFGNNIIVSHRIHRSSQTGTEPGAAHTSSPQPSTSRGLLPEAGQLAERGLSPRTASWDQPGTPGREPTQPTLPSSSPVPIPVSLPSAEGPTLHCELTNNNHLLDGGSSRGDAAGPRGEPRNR
As to the kind of experiment: automated immunohistochemistry, DAB chromogen.

Test [3] has as its target T3, Ambra-1 peptide (synthesized peptide to which anti-Ambra-1 antibodies were raised) (human, also: conjugated to carrier protein (BSA), site not given here).
T3 construct: It was tested in native and denatured form; also called Ambra-1 antigen
T3 peptide: CGGSSRGDAAGPRGEPRNR
As to the kind of experiment: quality control ELISA, chimeric human/mouse IgG1 on immobilized Amb1-TRF and Amb1-BSA (Ambra-1 peptide conjugates), signal over background.

Test [4] concerns the target T1, N1-CD33-His6 (the ectodomain of human …). As to the kind of experiment: quality control ELISA on immobilized control protein. This is another data set of the same source.

T1 sequence (P20138 18-259, tags left off): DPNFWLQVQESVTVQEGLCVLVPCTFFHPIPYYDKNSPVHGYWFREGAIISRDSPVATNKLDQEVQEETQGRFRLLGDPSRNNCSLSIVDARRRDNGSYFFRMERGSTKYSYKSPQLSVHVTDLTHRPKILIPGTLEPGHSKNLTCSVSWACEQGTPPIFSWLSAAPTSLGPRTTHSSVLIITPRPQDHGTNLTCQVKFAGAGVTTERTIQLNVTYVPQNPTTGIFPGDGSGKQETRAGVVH

B1: full length chimeric antibody AbD33047 with an IgG1 mouse Fc region (antibody, V domains shown)
VH: QVQLVQSGAEVKKPGASVKVSCKASGYTFNDYYIHWVRQAPGQGLEWMGVISPNSGKTNYAQKFQGRVTMTRDTSISTAYMELSRLRSEDTAVYYCARDLYPDSSAFDIWGQGTLVTVSS
VL: DIELTQPPSVSVSPGQTASITCSGDNLGDKYAHWYQQKPGQAPVLVIYDDNERPSGIPERFSGSNSGNTATLTISGTQAEDEADYYCQSYDSGNRVFGGGTKLTVLG
notes: also called recombinant monoclonal antibody AbD33047; HuCAL antibody AbD33047
As for B1, the binding result in test [1] was “no binding”.

B2: recombinant human HuCAL antibody fragment for Ambra-1 Abd33473.1 (Fab)
heavy: EVQLVQSGAEVKKPGESLKISCKGSGYSFSSYWIHWVRQMPGKGLEWMGTIFPSRSYTTYSPSFQGQVTISADKSISTAYLQWSSLKASDTAMYYCARDTPSTALKSPFDYWGQGTLVTVSSASTKGPSVFPLAPSSKSTSGGTAALGCLVKDYFPEPVTVSWNSGALTSGVHTFPAVLQSSGLYSLSSVVTVPSSSLGTQTYICNVNHKPSNTKVDKKVEPKSRTPEMPVLENRAAQGDITAPGGARRLTGDQTAALRDSLSDKPAKNIILLIGDGMGDSEITAARNYAEGAGGFFKGIDALPLTGQYTHYALNKKTGKPDYVTDSAASATAWSTGVKTYNGALGVDIHEKDHPTILEMAKAAGLATGNVSTAELQDATPAALVAHVTSRKCYGPSATSEKCPGNALEKGGKGSITEQLLNARADVTLGGGAKTFAETATAGEWQGKTLREQAQARGYQLVSDAASLNSVTEANQQKPLLGLFADGNMPVRWLGPKATYHGNIDKPAVTCTPNPQRNDSVPTLAQMTDKAIELLSKNEKGFFLQVEGASIDKQDHAANPCGQIGETVDLDEAVQRALEFAKKEGNTLVIVTADHAHASQIVAPDTKAPGLTQALNTKDGAVMVMSYGNSEEDSQEHTGSQLRIAAYGPHAANVVGLTDQTDLFYTMKAALGLKDYKDDDDKHHHHHH
light: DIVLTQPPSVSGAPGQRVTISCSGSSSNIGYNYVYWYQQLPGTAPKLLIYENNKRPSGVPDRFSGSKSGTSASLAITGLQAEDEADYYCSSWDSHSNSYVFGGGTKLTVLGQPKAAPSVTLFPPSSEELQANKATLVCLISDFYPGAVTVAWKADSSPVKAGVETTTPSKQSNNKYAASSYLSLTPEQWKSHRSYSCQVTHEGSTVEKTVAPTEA
notes: also called HuCAL antibody 33473
With B2, in test [2], the binding result is “no binding”.

B3: full length chimeric antibody AbD33473 with an IgG1 mouse Fc region (antibody, V domains shown)
VH: EVQLVQSGAEVKKPGESLKISCKGSGYSFSSYWIHWVRQMPGKGLEWMGTIFPSRSYTTYSPSFQGQVTISADKSISTAYLQWSSLKASDTAMYYCARDTPSTALKSPFDYWGQGTLVTVSS
VL: DIVLTQPPSVSGAPGQRVTISCSGSSSNIGYNYVYWYQQLPGTAPKLLIYENNKRPSGVPDRFSGSKSGTSASLAITGLQAEDEADYYCSSWDSHSNSYVFGGGTKLTVLG
notes: also called recombinant monoclonal antibody AbD33473; HuCAL antibody AbD33473
Take B3: the binding result with human Ambra-1 is given as “binds”; in test [3], “binds”; in test [4] it was “no binding”.
